{"source": "paper PMC3982939", "origin": "cited, not measured here", "key": {"[1]": {"target": "guanylin (Homo sapiens) (UniProt Q02747)"}, "[2]": {"target": "uroguanylin (Homo sapiens) (UniProt Q16661)"}}, "data": [{"substance": "Guanylyl cyclase C ECD (from UniProt P25092)", "values": [{"measurement": "Kd", "setting": "[1]", "result": 10, "unit": "nM"}, {"measurement": "Kd", "setting": "[2]", "result": 1, "unit": "nM"}]}]}
